From PMC4591933 (Cancer research, 2008)

Biological target: EGFR-NLuc (human EGF receptor fused to the N-terminal fragment of firefly luciferase) (human, UniProt P00533 25-1210)
Test: split reporter

fold induction of reconstituted luciferase over control, 15 min after EGF: 2.5 fold over control
B1: Shc-CLuc (human p52Shc fused to the C-terminal fragment of firefly luciferase) (natural protein, UniProt P29353-2 1-473, looked up)
chain: MNKLSGGGGRRTRVEGGQLGGEEWTRHGSFVNKPTRGWLHPNDKVMGPGVSYLVRYMGCVEVLQSMRALDFNTRTQVTREAISLVCEAVPGAKGATRRRKPCSRPLSSILGRSNLKFAGMPITLTVSTSSLNLMAADCKQIIANHHMQSISFASGGDPDTAEYVAYVAKDPVNQRACHILECPEGLAQDVISTIGQAFELRFKQYLRNPPKLVTPHDRMAGFDGSAWDEEEEEPPDHQYYNDFPGKEPPLGGVVDMRLREGAAPGAARPTAPNAQTPSHLGATLPVGQPVGGDPEVRKQMPPPPPCPGRELFDDPSYVNVQNLDKARQAVGGAGPPNPAINGSAPRDLFDMKPFEDALRVPPPPQSVSMAEQLRGEPWFHGKLSRREAEALLQLNGDFLVRESTTTPGQYVLTGLQSGQPKHLLLVDPEGVVRTKDHRFESVSHLISYHMDNHLPIISAGSELCLQQPVERKL
